Key:
Meth A cells = test: In vivo Meth A tumor inhibition (tumor protection / rejection) assay; design: species or system BALB/c mice; settings: Meth A gp96, dose of 10 μg intradermally day 0 and 7; versus matched preparation without buffer exchange
Method: (§1) In vivo Meth A growth inhibition assay: BALB/c mice (n=30/group) were immunized on day 0 and day 7 with 10 or 50 μg of gp96 intradermally in the flank. On study day 14, mice were challenged with 1×10^5 Meth A cells intradermally in a total volume of 100 μl. Growing tumors were monitored during the subsequent four weeks. All animals were euthanized on study day 41 after a final tumor measurement. Data was reported as percentage of animals that are tumor-free on study day 41. Control groups included un-immunized (diluent—negative control) and immunized with irradiated Meth A cells (positive control).
as §1, with “(n=10/group)” for “(n=30/group)”, “10” for “10 or 50”, “gl.” for “μl.”
as §1, with “(n=10/group)” for “(n=30/group)”, “10” for “10 or 50”
as §1, with “mice (n=10/group)” for “mice (n=30/group)”, “with 0.3” for “with 10”, “or 3” for “or 50”, “gp96 alone or in combination with Con A” for “gp96”

[1] = test system: Meth A-specific CD4+ T cell clone 24D3 with irradiated BALB/c splenocytes; test: Meth A in vitro antigen representation assay; assay type: cell-based, mouse (BALB/c); settings: Meth A gp96; versus matched preparation without buffer exchange; IL-5 ELISA
From the text: Materials: irradiated BALB/c splenocytes were used as the Antigen Presenting Cells (APCs). The Meth A-specific CD4^+ T cell clone, 24D3, was used. They are restricted by the MHClI molecule I-Ed, and are specific for the antigenic peptide contained within the sequence […]. The medium used for this assay was RPMI 1640 (Gibco-BRL). […] The wild-type form of the L 1 peptide ([…]) was used as a negative control, and the mutated form of the L11 peptide ([…]) was used as the positive control.
The resulting supernatant was further purified using Con A and DEAE chromatography.
Re-Presentation Assay: 2×104 of Meth A specific CD4^+ T cell clones (24D3) were incubated with 5×105 of irradiated BALB/c splenic APCs in the presence of various concentration of gp96 derived from Meth A or other sources (100, 50, 25, 12.5, 6.25 μg/ml final concentration) for 48-72 hrs in the 96 well flat bottom plate in 200 μl of final volume. Wild type ribosomal protein L11 peptide and mutated ribosomal protein L11 peptide were added in replicate wells and used as a negative control or positive control respectively. After 48-72 hours of incubation at 37° C., 5% CO2, 100 μl of supernatant was taken and IL-5 production was measured by ELISA.

B1: Meth A gp96 (Bx): Meth A gp96 prepared with buffer exchange step between Con A and DEAE columns, increased Con A content (protein, UniProt P08113 22-802, looked up)
Endoplasmin: DDEVDVDGTVEEDLGKSREGSRTDDEVVQREEEAIQLDGLNASQIRELREKSEKFAFQAEVNRMMKLIINSLYKNKEIFLRELISNASDALDKIRLISLTDENALAGNEELTVKIKCDKEKNLLHVTDTGVGMTREELVKNLGTIAKSGTSEFLNKMTEAQEDGQSTSELIGQFGVGFYSAFLVADKVIVTSKHNNDTQHIWESDSNEFSVIADPRGNTLGRGTTITLVLKEEASDYLELDTIKNLVRKYSQFINFPIYVWSSKTETVEEPLEEDEAAKEEKEESDDEAAVEEEEEEKKPKTKKVEKTVWDWELMNDIKPIWQRPSKEVEEDEYKAFYKSFSKESDDPMAYIHFTAEGEVTFKSILFVPTSAPRGLFDEYGSKKSDYIKLYVRRVFITDDFHDMMPKYLNFVKGVVDSDDLPLNVSRETLQQHKLLKVIRKKLVRKTLDMIKKIADEKYNDTFWKEFGTNIKLGVIEDHSNRTRLAKLLRFQSSHHSTDITSLDQYVERMKEKQDKIYFMAGSSRKEAESSPFVERLLKKGYEVIYLTEPVDEYCIQALPEFDGKRFQNVAKEGVKFDESEKTKESREATEKEFEPLLNWMKDKALKDKIEKAVVSQRLTESPCALVASQYGWSGNMERIMKAQAYQTGKDISTNYYASQKKTFEINPRHPLIRDMLRRIKEDEDDKTVMDLAVVLFETATLRSGYLLPDTKAYGDRIERMLRLSLNIDPEAQVEEEPEEEPEDTSEDAEDSEQDEGEEMDAGTEEEEEETEKESTEKDEL
modifications: tumor-derived; contains Con A
notes: Meth A gp96 prepared with buffer exchange step between Con A and DEAE columns, increased Con A content
Meth A cells
  in vivo tumor protection activity: higher in vivo tumor protection activity
[1]
  in vitro activity in the Meth A representation assay: higher in vitro antigen representation

Reference: patent US20040258705A1, “Use of lectins to promote oligomerization of glycoproteins and antigenic molecules” (Antigenics Inc., priority 2003, published 2004)
